# Experimental data reported in doi:10.1101/2023.08.30.555639.
# Like-named read-outs stand apart in the source and are kept apart here.
# Legend:
# [1] = biological target: disulfide-linked BTN2A1 ectodomain homodimer (Cys247, leucine zippers) (human) (UniProt Q7KYR7); test: SPR
# [2] = biological target: soluble BTN2A1–BTN3A1–zipper ectodomain complex (wild type) (human) (UniProt Q7KYR7); test: SPR
# [3] = biological target: soluble BTN3A1 ectodomain (IgV–IgC), homodimeric (human) (UniProt O00481); test: SPR
# [4] = biological target: BTN3A1 Phe26-Ala on transfected NIH-3T3 cells (human) (UniProt O00481); test: flow cytometry on cells
# [5] = biological target: BTN3A1 Leu96-Ala on transfected NIH-3T3 cells (human) (UniProt O00481); test: flow cytometry on cells
# [6] = biological target: BTN3A1 Lys37-Ala on transfected NIH-3T3 cells (human) (UniProt O00481); test: flow cytometry on cells
# [7] = biological target: BTN3A1 Ser42-Ala on transfected NIH-3T3 cells (human) (UniProt O00481); test: flow cytometry on cells
# [8] = biological target: soluble BTN2A1^WT–BTN3A1^Glu106-Ala zipper ectodomain complex (human) (UniProt Q7KYR7); test: SPR
# [9] = biological target: soluble BTN2A1–BTN3A1–zipper ectodomain complex (wild type) (human) (UniProt Q7KYR7); test: SPR; remark: listed apart in the source
Substance,Kd [1],Kd [2],Kd [3],also measured
"soluble Vγ9Vδ2^+ γδTCR clone G115, wild type",99 µM,79 µM,> 4000 µM,reduction of G115 tetramer staining against wild-type BTN3A1 [4]: > 90%; reduction of G115 tetramer staining against wild-type BTN3A1 [5]: > 90%; reduction of G115 tetramer staining against wild-type BTN3A1 [6]: > 90%; reduction of G115 tetramer staining against wild-type BTN3A1 [7]: > 90%; Kd [8]: 37 µM; Kd [9]: 85 µM
soluble BTN2A1 ectodomain lacking Cys247 (monomeric) (from UniProt Q7KYR7 29-248) (domain or fragment),–,–,1800 µM,–

# Further lines, with some results ahead:
Kd [1],Kd [2],Kd [3],Substance,also measured
1100 µM,–,–,monomeric BTN3A1 IgV domain (domain or fragment),–
–,46 µM,> 1200 µM,soluble G115 Vγ9Vδ2^+ TCR Lys53δ-Ala,–
–,740 µM,–,soluble G115 Vγ9Vδ2^+ TCR His85γ-Ala,–
